Source: article PMC11245488

Target: extracellular domain of human AXL (corresponding to sAXL) fused to C-terminal Fc (UniProt P30530)
Assay: SEC-MALS; human sAXL-Fc in solution; protein-conjugate analysis (protein 140 kDa, glycans ~25 kDa, total 165 kDa); conditions in the Supplemental Material

stoichiometry N: 2
Substance: extracellular domain of human AXL (corresponding to sAXL) fused to C-terminal Fc (from UniProt P30530 26-451) (Fc fusion)
